The target in the assay is T1, recombinant human IL-8 (Amersham) (human, UniProt P10145 28-99, limits assumed).
T1 construct: In the ELISA it is captured by goat anti-human IL-8 polyclonal antibody on the plate; In the neutrophil assay it is 125I-labelled and non-labelled IL-8 at 4 ng/ml each; also called human interleukin-8
T1 sequence (looked up): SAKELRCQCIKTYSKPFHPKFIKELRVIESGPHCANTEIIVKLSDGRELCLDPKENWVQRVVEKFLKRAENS
Put plainly: ELISA: human IL-8 captured by goat anti-human IL-8 polyclonal antibody, COS culture medium serially diluted, AP-labelled anti-human IgG. (In general: ELISA stands for enzyme-linked immunosorbent assay.)

B1: antibody of the chimeric WS-4 L chain and version a of the reshaped human WS-4 H chain (chL/RVHa) (antibody, V domains shown)
VH: EVQLLESGGGLVQPGGSLRLSCAASGFTFSDYYLSWVRQAQGKGLELVGLIRNKANGYTREYSASVKGRLTISREDSKNTLYLQMSSLKTEDLAVYYCARENYRYDVELAYWGQGTLVTVSS
VL: DIQMTQSPASLSASVGETVTITCRASEIIYSYLAWYQQKQGKSPQLLVYNAKTLADGVSSRFSGSGSGTQFSLRISSLQPEDFGSYYCQHHFGFPRTFGGGTKLELK
notes: Human C kappa and human C gamma 1 regions (HEF-chWS4L-gk with HEF-RVHa-gg1), tested as COS cell culture medium
On to B1, for which the binding result is listed as “no binding”.

B2: reshaped human WS-4 antibody RVLa/RVHc (antibody, V domains shown)
VH: EVQLLESGGGLVQPGGSLRLSCAASGFTFSDYYLSWVRQAPGKGLELVGLIRNKANGYTREYSASVKGRLTISREDSKNTLYLQMSSLKTEDLAVYYCARENYRYDVELAYWGQGTLVTVSS
VL: DIQMTQSPSSLSASVGDRVTITCRASEIIYSYLAWYQQKPGKAPKLLIYNAKTLADGVPSRFSGSGSGTDFTFTISSLQPEDIATYYCQHHFGFPRTFGQGTKVEIK
notes: Human C kappa and human C gamma 1 regions, tested as COS cell culture medium; also called antibody having H chain version c
B2: the binding result is listed as “no binding”.

For the origin of these results see patent US20020082396A1 (published 2002).
